Laboratory results published in article PMC4260915, “Colorful Protein-Based Fluorescent Probes for Collagen Imaging” (PLoS ONE, 2014).

B1: mTurquoise2-CNA35 (domain or fragment)
chain: ARDISSTNVTDLTVSPSKIEDGGKTTVKMTFDDKNGKIQNGDMIKVAWPTSGTVKIEGYSKTVPLTVKGEQVGQAVITPDGATITFNDKVEKLSDVSGFAEFEVQGRNLTQTNTSDDKVATITSGNKSTNVTVHKSEAGTSSVFYYKTGDMLPEDTTHVRWFLNINNEKSYVSKDITIKDQIQGGQQLDLSTLNINVTGTHSNYYSGQSAITDFEKAFPGSKITVDNTKNTIDVTIPQGYGSYNSFSINYKTKITNEQQKEFVNNSQAWYQEHGKEEVNGKSFNHTVHNINANAGIEGTVKGELKVLKQDKDTKA
notes: CNA35: domains N1 and N2 of the A-region of Staphylococcus aureus collagen adhesion protein, amino acids 30-344; Order: His-tag, thrombin cleavage site, mTurquoise2, flexible linkage of about 20 amino acids, CNA35; 65.2 kDa; also called FP-CNA35; N-terminal fusion of mTurquoise2 to CNA35; not shown: mTurquoise2, N-terminal, kept
B2: CNA35-mCherry (domain or fragment)
chain: B1 chain
notes: CNA35: domains N1 and N2 of the A-region of Staphylococcus aureus collagen adhesion protein, amino acids 30-344; Order: His-tag, thrombin cleavage site, CNA35, flexible linkage of about 20 amino acids, mCherry; 64.7 kDa; also called CNA35-FP; C-terminal fusion of mCherry to CNA35; not shown: mCherry, C-terminal, kept
B3: tdTomato-CNA35 (domain or fragment)
chain: B1 chain
notes: CNA35: domains N1 and N2 of the A-region of Staphylococcus aureus collagen adhesion protein, amino acids 30-344; Order: His-tag, thrombin cleavage site, tdTomato, flexible linkage of about 20 amino acids, CNA35; 92.5 kDa; also called FP-CNA35; N-terminal fusion of tdTomato to CNA35; not shown: tdTomato, N-terminal, kept
B4: CNA35-LSSmOrange (domain or fragment)
chain: B1 chain
notes: CNA35: domains N1 and N2 of the A-region of Staphylococcus aureus collagen adhesion protein, amino acids 30-344; Order: His-tag, thrombin cleavage site, CNA35, flexible linkage of about 20 amino acids, LSSmOrange; 64.7 kDa; also called CNA35-FP; C-terminal fusion of LSSmOrange to CNA35; not shown: LSSmOrange, C-terminal, kept
B5: CNA35-mTurquoise2 (domain or fragment)
chain: B1 chain
notes: CNA35: domains N1 and N2 of the A-region of Staphylococcus aureus collagen adhesion protein, amino acids 30-344; Order: His-tag, thrombin cleavage site, CNA35, flexible linkage of about 20 amino acids, mTurquoise2; 65.0 kDa; also called CNA35-FP; C-terminal fusion of mTurquoise2 to CNA35; not shown: mTurquoise2, C-terminal, kept
B6: mCherry-CNA35 (domain or fragment)
chain: B1 chain
notes: CNA35: domains N1 and N2 of the A-region of Staphylococcus aureus collagen adhesion protein, amino acids 30-344; Order: His-tag, thrombin cleavage site, mCherry, flexible linkage of about 20 amino acids, CNA35; 64.6 kDa; also called FP-CNA35; N-terminal fusion of mCherry to CNA35; not shown: mCherry, N-terminal, kept
B7: CNA35-tdTomato (domain or fragment)
chain: B1 chain
notes: CNA35: domains N1 and N2 of the A-region of Staphylococcus aureus collagen adhesion protein, amino acids 30-344; Order: His-tag, thrombin cleavage site, CNA35, flexible linkage of about 20 amino acids, tdTomato; 93.1 kDa; also called CNA35-FP; C-terminal fusion of tdTomato to CNA35; not shown: tdTomato, C-terminal, kept
B8: CNA35-mAmetrine (domain or fragment)
chain: B1 chain
notes: CNA35: domains N1 and N2 of the A-region of Staphylococcus aureus collagen adhesion protein, amino acids 30-344; Order: His-tag, thrombin cleavage site, CNA35, flexible linkage of about 20 amino acids, mAmetrine; 64.4 kDa; also called CNA35-FP; C-terminal fusion of mAmetrine to CNA35; not shown: mAmetrine, C-terminal, kept
B9: mAmetrine-CNA35 (domain or fragment)
chain: B1 chain
notes: CNA35: domains N1 and N2 of the A-region of Staphylococcus aureus collagen adhesion protein, amino acids 30-344; Order: His-tag, thrombin cleavage site, mAmetrine, flexible linkage of about 20 amino acids, CNA35; 64.3 kDa; also called FP-CNA35; N-terminal fusion of mAmetrine to CNA35; not shown: mAmetrine, N-terminal, kept
B10: LSSmOrange-CNA35 (domain or fragment)
chain: B1 chain
notes: CNA35: domains N1 and N2 of the A-region of Staphylococcus aureus collagen adhesion protein, amino acids 30-344; Order: His-tag, thrombin cleavage site, LSSmOrange, flexible linkage of about 20 amino acids, CNA35; 64.6 kDa; also called FP-CNA35; N-terminal fusion of LSSmOrange to CNA35; not shown: LSSmOrange, N-terminal, kept
B11: CNA35-EGFP (domain or fragment)
chain: B1 chain
notes: CNA35: domains N1 and N2 of the A-region of Staphylococcus aureus collagen adhesion protein, amino acids 30-344; Order: His-tag, thrombin cleavage site, CNA35, flexible linkage of about 20 amino acids, EGFP; 65.1 kDa; also called CNA35-FP; C-terminal fusion of EGFP to CNA35; not shown: EGFP, C-terminal, kept
B12: EGFP-CNA35 (domain or fragment)
chain: B1 chain
notes: CNA35: domains N1 and N2 of the A-region of Staphylococcus aureus collagen adhesion protein, amino acids 30-344; Order: His-tag, thrombin cleavage site, EGFP, flexible linkage of about 20 amino acids, CNA35; 65.0 kDa; also called N-terminal fusion of EGFP to CNA35; not shown: EGFP, N-terminal, kept

Target: T1, Rat tail collagen type I (rat, UniProt P02454 152-1207; P02466 86-1125)
T1 construct: collagen alpha-1(I) chain, rat; collagen alpha-2(I) chain, rat; Immobilised as a collagen matrix formed on pH neutralisation; source: bought: Sigma-Aldrich, cat. no; C7661
Assay: solid-phase collagen binding assay (fluorescence of bound probe, plate reader); rat tail collagen type I or BSA immobilised in wells of a 96-well plate, blocked with 2% BSA; probe dilutions 0.1–50 µM, 1–1.5 hours at room temperature; 20 mM HEPES pH 7.2, 150 mM NaCl; apparent overall Kd
Settings: both partners purified

T1 sequence (P02454 152-1207, chain 1 of 2): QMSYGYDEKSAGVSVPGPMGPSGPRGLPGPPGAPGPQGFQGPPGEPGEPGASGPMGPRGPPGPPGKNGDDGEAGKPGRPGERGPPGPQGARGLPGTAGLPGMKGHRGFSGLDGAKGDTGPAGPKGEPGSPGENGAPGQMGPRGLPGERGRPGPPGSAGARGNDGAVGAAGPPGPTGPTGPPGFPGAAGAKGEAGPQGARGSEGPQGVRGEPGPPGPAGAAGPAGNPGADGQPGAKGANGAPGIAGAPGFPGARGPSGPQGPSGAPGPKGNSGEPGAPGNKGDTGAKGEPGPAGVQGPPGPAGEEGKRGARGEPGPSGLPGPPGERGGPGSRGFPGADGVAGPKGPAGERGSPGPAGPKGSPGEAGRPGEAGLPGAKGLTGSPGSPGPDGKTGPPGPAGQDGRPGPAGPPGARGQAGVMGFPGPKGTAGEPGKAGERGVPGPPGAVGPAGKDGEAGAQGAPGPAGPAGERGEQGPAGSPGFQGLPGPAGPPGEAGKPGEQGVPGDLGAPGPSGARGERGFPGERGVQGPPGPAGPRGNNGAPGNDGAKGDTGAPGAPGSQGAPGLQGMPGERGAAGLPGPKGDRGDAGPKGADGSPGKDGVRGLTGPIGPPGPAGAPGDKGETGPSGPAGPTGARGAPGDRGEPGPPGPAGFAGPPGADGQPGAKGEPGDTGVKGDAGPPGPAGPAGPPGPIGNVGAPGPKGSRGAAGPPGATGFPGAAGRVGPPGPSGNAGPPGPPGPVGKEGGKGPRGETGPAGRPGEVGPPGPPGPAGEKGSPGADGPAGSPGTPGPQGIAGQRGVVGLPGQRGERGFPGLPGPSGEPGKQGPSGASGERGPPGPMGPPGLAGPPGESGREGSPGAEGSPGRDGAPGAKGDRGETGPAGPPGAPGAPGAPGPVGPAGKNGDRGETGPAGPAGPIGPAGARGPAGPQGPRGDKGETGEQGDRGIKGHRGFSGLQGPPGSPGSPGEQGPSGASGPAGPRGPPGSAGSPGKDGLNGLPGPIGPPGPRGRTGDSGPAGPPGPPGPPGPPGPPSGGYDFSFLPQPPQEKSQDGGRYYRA
T1 sequence (P02466 86-1125, chain 2 of 2): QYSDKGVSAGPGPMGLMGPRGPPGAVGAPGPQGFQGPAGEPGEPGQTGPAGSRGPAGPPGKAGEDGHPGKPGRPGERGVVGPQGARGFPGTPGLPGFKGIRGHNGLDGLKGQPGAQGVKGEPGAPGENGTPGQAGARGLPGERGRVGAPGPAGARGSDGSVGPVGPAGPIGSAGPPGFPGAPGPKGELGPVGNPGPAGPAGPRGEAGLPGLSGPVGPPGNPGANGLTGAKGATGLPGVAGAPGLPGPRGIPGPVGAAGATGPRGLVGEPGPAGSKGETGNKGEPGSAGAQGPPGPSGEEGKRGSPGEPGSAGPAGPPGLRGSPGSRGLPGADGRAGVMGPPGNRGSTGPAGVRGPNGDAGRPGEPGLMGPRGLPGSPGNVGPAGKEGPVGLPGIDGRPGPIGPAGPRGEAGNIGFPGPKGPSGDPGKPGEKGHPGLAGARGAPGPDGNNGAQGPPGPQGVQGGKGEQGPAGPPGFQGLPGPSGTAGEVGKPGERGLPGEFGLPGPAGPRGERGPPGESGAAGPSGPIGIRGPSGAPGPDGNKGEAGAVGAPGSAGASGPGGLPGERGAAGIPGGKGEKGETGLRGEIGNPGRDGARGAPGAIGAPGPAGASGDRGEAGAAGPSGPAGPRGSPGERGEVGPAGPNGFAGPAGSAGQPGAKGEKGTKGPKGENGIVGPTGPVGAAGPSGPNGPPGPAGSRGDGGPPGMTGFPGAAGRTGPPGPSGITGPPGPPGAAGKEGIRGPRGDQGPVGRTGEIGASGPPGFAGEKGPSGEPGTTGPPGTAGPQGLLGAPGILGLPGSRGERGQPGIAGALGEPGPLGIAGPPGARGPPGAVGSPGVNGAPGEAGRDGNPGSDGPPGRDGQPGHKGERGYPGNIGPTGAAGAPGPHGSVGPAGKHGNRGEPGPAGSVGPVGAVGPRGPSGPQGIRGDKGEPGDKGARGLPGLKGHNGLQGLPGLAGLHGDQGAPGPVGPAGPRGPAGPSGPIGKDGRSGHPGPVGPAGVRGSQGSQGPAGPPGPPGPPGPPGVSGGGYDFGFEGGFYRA

Binder	Kd
B1	~1000 nM
B2	~1000 nM
B3	~1000 nM
B4	~1000 nM
B5	~1000 nM
B6	~1000 nM
B7	~1000 nM
B8	~1000 nM
B9	~1000 nM
B10	~1000 nM
B11	~1000 nM
B12	~1000 nM
